Measurements as given in paper PMC11409006 (Computational and Structural Biotechnology Journal, 2024).

Assays:
Conditions in all cases: both partners purified
[1] = biological target: T1, C-terminal domain of the Plasmodium falciparum circumsporozoite protein, PfCSP-Cext (Plasmodium falciparum; strain not …, UniProt Q7K740); test: native MS; ITEM-TWO: nanoESI of the mixture (sdAbCSP1 : PfCSP-Cext = 1 : 3.4) in 200 mM ammonium acetate, pH 6.7; complex ions isolated and dissociated in the gas phase by stepwise raised collision cell voltage (2-120 V); apparent gas-phase constants; triplicate
T1 construct: Plasmodium falciparum circumsporozoite protein, C-terminal domain (alpha-TSR) with unstructured N- and C-terminal extensions; the compactly folded PfCSP-C domain is aa39-100 of PfCSP-Cext; K42, K45, E46, L48, N49 of PfCSP-Cext equal K314, K317, E318, L320, N321 of PfCSP; numbers count on: the construct PfCSP-Cext; also called PfaCSP-Cext; PfCSP-C (as named in the ITC sections); source: …

[2] = biological target: T1, C-terminal domain of the Plasmodium …; test: ITC; sdAbCSP1 (45 µM) titrated into the cell with PfCSP-C (4 µM); 20 mM Tris-HCl, 150 mM NaCl, pH 8.0; 25 °C; one set of sites model; triplicate
[3] = biological target: T2, PfCSP-Cext (Plasmodium falciparum, UniProt Q7K740); test: ITC; sdAbCSP1 (45 µM) titrated into the cell with PfCSP-C (4 µM); 25 °C; 20 mM Tris-HCl, 150 mM NaCl, pH 8.0; one set of sites model; triplicate
T2 construct: circumsporozoite protein (PfCSP) of Plasmodium falciparum, C-terminal domain with non-structured N- and C-terminal extensions; the compactly folded PfCSP-C domain is aa39-100; aa114-127 contain the His-tag; numbers count on: the PfCSP-Cext construct; also called C-terminal domain of the Plasmodium falciparum circumsporozoite protein; PfCSP-C (so called in the ITC methods and results); source: E. …
T2 sequence (Q7K740 310-374): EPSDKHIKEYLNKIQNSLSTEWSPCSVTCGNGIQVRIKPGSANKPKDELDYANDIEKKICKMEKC

T1 sequence (Q7K740 310-374): as above

B1: camelid single domain antibody sdAbCSP1 (VHH)
VHH: QVQLQESGGGLVQAGGSLRLSCAASGRTFSSYSMGWFRLVPGKEREFVARISSSGGNTYYADSVRGRFTISRDNAKNTVYLQMNSLKPEDTAVYYCAADLLQFGRSSRAADYDYWGQGTQVTVSS
notes: full length is aa1-144; CDR1 aa25-33, CDR2 aa52-57, HV4 aa74-77, CDR3 aa100-118; aa1-125 is the form without non-structured extensions; source: recombinantly expressed
[1]
  KD m0g# (apparent quasi equilibrium constant of gas-phase complex dissociation): 3.7e-12 s⁻¹
  dH m0g# (apparent enthalpy of gas-phase complex dissociation): 12 kcal/mol
  kD m0g# (apparent rate constant of gas-phase complex dissociation): 1e+10 Ø (unitless number)
[2]
  Kd: 0.5 nM
  dH: -8.34 kcal/mol

B2: sdAbCSP1 (VHH)
VHH: QVQLQESGGGLVQAGGSLRLSCAASGRTFSSYSMGWFRLVPGKEREFVARISSSGGNTYYADSVRGRFTISRDNAKNTVYLQMNSLKPEDTAVYYCAADLLQFGRSSRAADYDYWGQGTQVTVSS
notes: 144 residues (aa1-144); CDR1 aa25-33, CDR2 aa52-57, HV4 aa74-77, CDR3 aa100-118; aa106-108 are SSR; aa1-125 are the folded domain; also called camelid single domain antibody sdAbCSP1; pQ-sdAbCSP1 (form with N-terminal pyro-glutamine); source: recombinantly expressed
[3]
  stoichiometry N: 0.9 ± 0.12
